By Kd is commonly meant the concentration at which binding is half-saturated. A high value points to lower affinity.

Experimental findings from patent publication US20230374114A1 (Dana-Farber, published 2023) are described below.

Assay [1] has as its target D614G Spike (SARS-CoV2, UniProt P0DTC2 16-1213).
Assay [2] has as its target D614G Spike (SARS-CoV-2, UniProt P0DTC2 16-1213).

B1: S1-RBD-R3-T1-F9 Ab (Ab_39) (scFv, V domains shown)
VH: QVTLKESGPTLVKPTQTLTLTCTLSGVSLDTIGMRVSWIRQPPGKALEWLARIDWDDDKFYSTALKTRLTISKDTSKNQVVFTMTSMDPVDTATYYCARSGLLYDLDVWGRGTLVTVSS
VL: QSVVTQPPSVSGAPGQRVTISCTGSDSDIGANFVQWYQQLPGTAPKLLIWRNTNRPSGVPDRFSASKSGTSASLAITGLQAEDEADYFCQSYDSSLSAYVFGGGTKVTVL
As to B1, the Kd with D614G Spike [1] is less than 1 pM.

B2: RBD-R3-T1-H3 (Ab_2) (scFv, V domains shown)
VH: EVQLVQSGAEVKKPGSSVKVSCKTSGYTFTTSGISWVRQAPGQGLEWMGWISAYNGNTNYAQKLQGRVTMTTDTSTSTAYMELRSLRSDDTAVYYCARDFHLYYGMDVWGKGTLVTVSS
VL: QSALTQPPSASGSPGQSVTISCTGTSSDVGAYNYVSWYQQHPGKAPKLLIYDVTKRPPGVPDRFSGSKSGNTASLTVSGLQAEDEADYYCAVWDDGLNGRVVFGGGTKLTVL
As for B2, the Kd with D614G Spike [2] was determined as 167 pM.

B3: S1-RBD-R3-T1-F5 (Ab2-7) (scFv, V domains shown)
VH: QVTLKESGPTRVKPTQTLTLTCTFSGFSLSTTGVGVGWIRQPPGKALEWLALIYWNDDKRYSPSLKSRLTITKDTSKNQVVLTMTNMDPVDTATYYCARISGSGYFYPFDIWGQGTTVTVSS
VL: NFMLTQPHSVSESPGKTVTISCTRSSGSIASNYVQWYQQRPGSSPTTVIYEDNQRPSGVPDRFSGSIDSSSNSASLTISGLKAEDEADYYCQSYDSSSLWVFGGGTKLTVL
In the assay with D614G Spike [2], B3 yielded a Kd of 9.93 pM.

B4: RBD-R3-E1-G7 (Ab2-10) (scFv, V domains shown)
VH: EVQLVESGPGLVKPSETLSLTCTVSGGSISSYYWSWIRQPAGKGLEWIGRIYTSGSTNYNPSLKSRVTMSVDTSKNQFSLKLSSVTAADTAVYYCARDVGFGWFDRWGQGTLVTVSS
VL: NFMLTQPHSVSESPGKTVTISCTRSSGSIASNYVQWYQQRPGSSPTTVIYEDNQRPSGVPDRFSGSIDSSSNSASLTISGLTTEDEADYYCQSFDSASLWVFGGGTKLTVL
B4: binding in the assay with D614G Spike [2] was characterised by a dissociation constant (Kd) of 8.87 pM.

B5: Ab_13 (scFv, V domains shown)
VH: QVTLKESGPKLVKPTQTLTLTCTFSGFSLSTSGVGVGWIRQPPGKALEWLALIYWDDDKRYSPSLKSRLTIAKDTSKYQVVLTMTNMDPVDTATYYCARISGSGYFYPFDIWGQGTMVTVSA
VL: NFMLTQPHSVSESPGKTVTISCTRSSGSIASNYVQWYQQRPGSAPTTVIYEDNQRPSGVPDRFSGSIDSSSNSASLTISGLKTEDEADYYCQSYDSSNLWVFGGGTKLTVL
B5 had a Kd in the assay with D614G Spike [2] of 8.1 pM.

B6: Ab 38 (scFv, V domains shown)
VH: QVTLKESGPTLVKPTQTLTLTCTFSGFSLTTSGVSVGWIRQPPGKALEWLALIHWDDDKRYSPSLRSRLTITRDTSKNQVVLTVTDMDPADTGTYYCASFIMTVYAEYFEDWGQGTLVTVSS
VL: EIVLTQSPATLSVSPGERATLSCRASQSVSSNLAWYQQKPGQAPRLLMYDVSTRATGIPARFSGSGSGTEFSLTISSLQSEDFAVYYCQQRGAWPLTFGGGTKVEIK
On to B6, for which the Kd with D614G Spike [1] is 3.37 pM. This counts as picomolar.

B7: RBD-R3-E1-F5 Ab (Ab_36) (scFv, V domains shown)
VH: QVQLQQSGPGLVKPSQTLSLTCAIFGDSVTSNSAAWNWIRQSPSRGLEWLGRTYYSSKWYNDYAVSVKSRVTINADTSKNQLSLQLNSVTPEDTAVYYCARGWLRLSFDPWGQGTLVTVSS
VL: NFMLTQPHSVSESPGKTVTISCTGSSGSIASNYVQWLQQRLGSAPTTVIYEDNQRPSGVPDRFSGSIDSSSNSASLTISGLKTEDEADYYCQSYDPNNHGVVFGGGTKLTVL
For B7, in the assay with D614G Spike [1], the Kd turned out to be 7.42 pM.

B8: S1-R3-T1-C4 (Ab_8) (scFv, V domains shown)
VH: QVQLVQSGAEVKKPGSSVKVSCKASGGTFSSYAISWLRQAPGQGLEWMGWINPNSGGTNYAQKFQGRVTMTRDTSISTAYMELSRLRSDDTAVYYCARGSGGYYLGWGQGTLVTVSS
VL: QPGLTQPPSVSKGLRQTATLTCTGNSNNVGNQGAAWLQQHQGHPPKLLSYMNNNRPPGISERFSASRSGNTASLTITGLQPEDEADYYCSAWDSSLSRWVFGGGTKLSVL
As for B8, the Kd in the assay with D614G Spike [2] turned out to be 7.3 pM.

B9: RBD-R3-E1-B3 Ab (Ab_32) (scFv, V domains shown)
VH: QVQLVQSGAEVKKPGESLKISCKGSGYSFTSYWIGWVRQMPGKGLEWMGIIYPGDSDTRYSPSFQGQVTISADKSISTAYLQWSSLKASDTAMYYCARGWQWHDYWGQGTLVTVSS
VL: QTVVTQEPAVSVALGQTVRITCQGDSLRSYYASWYQQKPGQAPVLVVYDKDKRPSGIPDRFSGSTSGNTASLTITGAQAEDEADYYCNSRDRSDNHVVFGGGTKLTVL
B9 returned a Kd with D614G Spike [2] of 7.26 pM. This Kd and that of the molecule before are within 1.5-fold of each other.

B10: S1-RBD-R3-T1-G1 Ab (Ab_35) (scFv, V domains shown)
VH: EVQLVQSGAEVKKPGESLRISCKASGYSFTSNWIGWVRQMPGKGLEWMGSIFPGDSDTKYSPSFQGQVTISADRSISTAYLQWSGLKASDTAMYYCARESYNAYGSWGQGTLVTVSS
VL: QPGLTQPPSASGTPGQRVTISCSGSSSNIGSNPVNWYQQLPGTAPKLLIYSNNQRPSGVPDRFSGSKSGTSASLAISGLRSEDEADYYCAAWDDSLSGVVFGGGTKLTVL
For B10, binding in the assay with D614G Spike [1] was characterised by a dissociation constant (Kd) of 8.69 pM.

B11: S1-RBD-R3-T1-E2 (Ab7) (scFv, V domains shown)
VH: QVQLVQSGGGLVQPGRSLRLSCAASGFTFDDYAMHWVRQVPGKGLEWVSGIDWNSGVIGYADSVKGRFTISRDNAKNSLYLQMNSLRAEDTALYYCAKDAYSYGFLGAFDIWGQGTMVTVSS
VL: QPGLTQPPSVSVAPGQTARISCGGNNIGSKSVHWYQQKPGRAPVLVVYEDRGRPSGIPERFSGSNSGNTATLTVSRVEAGDEADYYCQVWDGDSDHYVFATGTKVSIL
In turn, B11 returned a Kd with D614G Spike [2] of 2.74 pM.

B12: S1-R3-T1-H7 (Ab12) (scFv, V domains shown)
VH: EVQLVESGPGVVSPSATLFLTCSVSGGSIRTHSWNWIRQPPGKPLEWIGFIHHSGATNKNPSLKSRVTISSDTSKNEFSLTLTSVTAADTAVYYCARGPGILSYWSRGTLVTVSS
VL: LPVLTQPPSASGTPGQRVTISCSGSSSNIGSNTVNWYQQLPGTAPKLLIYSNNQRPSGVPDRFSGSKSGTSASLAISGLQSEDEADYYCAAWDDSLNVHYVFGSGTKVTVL
In the case of B12, binding with D614G Spike [2] was put at a Kd of 11.2 pM.

B13: S1-RBD-R3-E1-E8 Ab (Ab 37) (scFv, V domains shown)
VH: QVQLVQSGAEVKKPGASVKVSCKASGYTFTSYGISWVRQAPGQGLEWMGWISTYNGNTNYAQKLQGRVTMTTDTSTSTAYMEVRSLRSDDTAVYYCARDVFGHFDYWGQGTLVTVSS
VL: NFMLTQPHSVSESPGKTVLISCTRSSGNIATNYVQWYQQRPGSAPTTVIYEDNQRPSGVPDRFSGSIDSSSNSASLTISGLKTEDEADYYCKSYDDGNHVFGGGTKLTVL
In the assay with D614G Spike [1], B13 returned a Kd of 8.54 pM.

B14: S1-RBD-R3-T1-D7 Ab (Ab_34) (scFv, V domains shown)
VH: QVQLVQSGVEVKKPGESLKISCKGSGYSFTSYWIGWVRQMPGKGLEWMGIIYPGDSDTRYSPSFQGQVTISADKSISTAYLQWSSLKASDTAMYYCARTTYSYGSFDYWGQGTLVTVSS
VL: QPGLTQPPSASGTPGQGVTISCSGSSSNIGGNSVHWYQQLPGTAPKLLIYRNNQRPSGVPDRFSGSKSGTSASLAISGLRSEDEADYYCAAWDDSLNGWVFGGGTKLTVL
The molecule B14 yielded a Kd with D614G Spike [2] of 9.15 pM.
